Assay results taken from article PMC10602362, “Interchangeability of class I and II fumarases in an obligate methanotroph Methylotuvimicrobium alcaliphilum 20Z” (PLOS ONE, 2023).

Experiments:
FumC (class II fumarase) [1] = target: T1, FumC (class II fumarase) (Methylotuvimicrobium alcaliphilum, UniProt G4SWR5); experiment: coupled assay with NADP-dependent malic enzyme at […] nm; type: biochemical; set-up: full length (gene 1404 bp), His6-tagged, pET22b(+), E. coli BL21(DE3); homotetramer (184 kDa); conditions: 1 mM fumarate, 50 mM Tris-HCl pH 8.0, coupling enzyme present
FumI (class I fumarase) [2] = target: T2, FumI (class I fumarase) (Methylotuvimicrobium alcaliphilum, UniProt G4T1T1); experiment: as above; type: biochemical; conditions: activator; 1 mM succinate, 1 mM fumarate, 50 mM Tris-HCl pH 8.5, 5 mM MgCl2; coupling enzyme present
T2 construct: gene fumA; full length, 507 residues, His6-tagged, pET22b(+), E. coli BL21(DE3); homodimer (130 kDa); aerobically purified, stabilised with iron-sulfur mixture; [4Fe-4S]

FumI (class I fumarase) [3] = target: T2, FumI (class I fumarase); experiment: spectrophotometric hydration assay at […] nm, Hill fit; type: biochemical; conditions: 50 mM Tris-HCl pH 8.5, optimal conditions, aerobic; Hill n = 1.4 ± 0.2; read-out: Class I fumarase / S0.5
FumC (class II fumarase) [4] = target: T1, FumC (class II fumarase); conditions: read-out: Class II fumarase (FumС) / Km(S0.5*); 50 mM Tris-HCl pH 8.0; text b40 prints 0.10 ± 0.001 mM
purified protein [5] = substrate: O=C(O)C[C@H](O)C(=O)O; experiment: purified protein
purified protein [6] = substrate: C/C(=C\C(=O)O)C(=O)O; experiment: purified protein; type: biochemical, Methylotuvimicrobium alcaliphilum; conditions: 50 mM Tris-HCl pH 8.5, aerobic, Hill n = 1.4 ± 0.1, error in Table 1 printed ± 0.2
[7] = 50 mM Tris-HCl pH 8.5, aerobic, Hill n = 1.7 ± 0.1, error in text b33 ± 0.03
[8] = 50 mM Tris-HCl pH 8.5, Hill n = 2.1 ± 0.4

Q: `O=C(O)CC(O)(CC(=O)O)C(=O)O` [citrate] was tested. Which “% reduction of activity at 1 mM” value (FumC (class II fumarase) [1]; 1 mM citrate) did it give?
A: 50%

Q: With `O=C(O)CCC(=O)O` [succinate] as the molecule, how does the “fold activity at 1 mM” value (FumI (class I fumarase) [2]) read?
A: ~ 1.5 fold

Q: With `O=C(O)/C=C/C(=O)O` [fumarate] as the molecule, how does the Km (FumI (class I fumarase) [3]) read?
A: 280 ± 40 µM

Q: What about the Km (FumC (class II fumarase) [4]) of the same molecule?
A: 110 ± 4 µM

Q: How did the “% reduction of activity at 1 mM” value (FumC (class II fumarase) [1]; 1 mM phosphoenolpyruvate) turn out when `C=C(OP(=O)(O)O)C(=O)O` [phosphoenolpyruvate] was run?
A: 30%

B1: FumI (class I fumarase) (Methylotuvimicrobium alcaliphilum 20Z) (protein)
chain: MTLIRQEDFIQSIFESLQYISYYHPQDFIEAMYRAYQNEQSSAAKDAIAQILINSRMCAEGHRPICQDTGIVVVFLKIGMNVQWDAQISITDMVNEGVRRAFMHPDNILRASILSDPAGKRINTRDNTPAVVYMEVVPGDRVEVEIAAKGGGSEAKSKFAMLNPSDSIVDWVMQTVPTMGAGWCPPGILGIGIGGTAEKAMLLAKQACMESVDIHELIARGPVNALEELRLELYEKVNALGIGAQGMGGLTTVLDIKIKDYPAHAANKPVAMIPNCAATRHIHFELDGSGPAELPVPCLEDWPKIAWEGGNSAKRVNLDTVTKDEIATWRPGETLLLSGTLLTGRDAAHKRIVEMLERGEALPEGVDFTNKFIYYVGPVDPVRDEVVGPAGPTTATRMDKFTEAMLAQTGLIGMIGKAERGPVAIEAIKKHRAVYLMAVGGAAYLVSKAIRKARVVAFEDLGMEAVHEFVIEDMPVTVAVDVDGESIHKSGPKQWQAKIGKIPVVSK
notes: full length, 507 residues, His6-tagged, pET22b(+), E. coli BL21(DE3); homodimer (130 kDa); aerobically purified, stabilised with iron-sulfur mixture; [4Fe-4S]
Q: Which results are given for B1?
A: K0.5 (purified protein [5]; [7]): 0.55 ± 0.02 mM; kcat/Km (purified protein [5]; [7]): 180 M⁻¹ s⁻¹; K0.5 (purified protein [6]): 0.24 ± 0.02 mM; kcat/Km (purified protein [6]): 750 M⁻¹ s⁻¹

B2: FumC (class II fumarase) (Methylotuvimicrobium alcaliphilum 20Z) (protein)
chain: MTIGSSAGRIESDALGSIEVPADKYWGAQTQRSLHYFAIGDERLPRPLIRALGIVKRCAALSNIAQNKLDEKLGRAIVDAAQEVIDGALDEHFPLVIWQTGSGTQSNMNANEVIANRVNERLGGALGSKSPVHPNDHCNLSQSSNDVFPSAMHIAAVEQLQCLLIPSLQRLQKTLSDKSQAWADIIKIGRTHLQDATPLSLGQEFSGYATQVQLSIERLQDSLKRLYPLAQGGTAVGTGLNSSQGFAELFADEVAKFTGHPFTSAANKFEAMAAHDALVELSGVLNCSAVSLNKIANDIRLLSSGPRSGLGELILPANEPGSSIMPGKINPTQCEALTMVCTQVIGNHTTVTLAGAQGHLELNTFKPVMIYNVLQSIRLLGDAAHSFTEHCVAGIQPNAERIAELMEQSLMLVTALVPQIGYDKAAQIAKTAMQNGTTLREEAIAVGLVSAEQFDAIVRPERMIMPK
Q: B2 was tested. Which K0.5 (purified protein [5]; [8]) did it give?
A: 0.14 ± 0.01 mM

Q: What about the kcat/Km (purified protein [5]; [8]) of the same molecule?
A: 1000 M⁻¹ s⁻¹
